{"source": "paper PMC6437151", "key": {"FBXW2 [1]": {"target": "FBXW2 (UniProt Q9UKT8)", "assay": "co-transfection, HA IP, immunoblot", "conditions": "reference: wild type; sites S552"}, "FBXW2 [2]": {"target": "FBXW2 (UniProt Q9UKT8)", "assay": "IP with FBXW2 antibody, immunoblot", "conditions": "reference: wild type; sites S552"}}, "data": [{"substance": "β-catenin (from UniProt P35222) S552A", "values": [{"measurement": "binding against the reference", "setting": "FBXW2 [1]", "value": "lost"}, {"measurement": "binding against the reference", "setting": "FBXW2 [2]", "value": "lost"}]}]}
